This passage reports stoichiometry N results from PMC3558696.

In this assay the target is KERP1 (lysine and glutamic acid rich protein 1), recombinant full-length protein (Entamoeba histolytica (strain HM1:IMSS)). Description: AUC.

Broadly, the stoichiometry N is a count of units in the complex or per binding partner. Regarding “KERP1 (lysine and glutamic acid rich protein 1), recombinant full-length protein (natural protein)”, the stoichiometry N is 3.
